B1: glmS ribozyme (parent)
chain: AUAAAAGCGCCAGAACUACAGAAAUGUAGUUGACGAGGAGGAGGUUUAUCGAAUUUUCGGCGGAUGCCUCCAAA

Common to all, as to settings: with glucosamine-6-phosphate
Data set [1] covers variants of B1. As to the kind of experiment: self-cleavage kobs at 160 uM GlcN6P; higher = faster cleavage; RNA array. In short, it runs like this:
(§1)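 Using a hybridised Cy3 probe at 37 °C, barcoded ribozyme variants transcribed in situ by E. coli RNA polymerase on sequenced MiSeq chips were monitored across tiles imaged over ~14 h. The flow contained glucosamine-6-phosphate from 40 μM to 10 mM in HEPES/KCl/Mg(OAc)2 buffer. Signals were normalised to baseline and to non-cleaving reference variants before per-tile medians were fit to one- or two-exponential decays to yield kobs. Weighted Michaelis–Menten fits across concentrations gave kcat and KM.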

Variants of B1 are the subject of data set [2]. As to the kind of experiment: self-cleavage kobs at 2500 uM GlcN6P; higher = faster cleavage; RNA array. A digest of the protocol: as §1
In data set [3] the parent is B1. As to the kind of experiment: self-cleavage kobs at 640 uM GlcN6P; higher = faster cleavage; RNA array. A digest of the protocol: as §1
The variants in data set [4] derive from B1. Kind of data set: self-cleavage kobs at 10000 uM GlcN6P; higher = faster cleavage; RNA array. A digest of the protocol:
as §1

± gives the standard error. Fewer inactive variants are shown than the library holds.

On to G7U G41U A53G, for which the “self-cleavage kobs at 160 uM GlcN6P” value in data set [1] is under 1e-05 s⁻¹. Further, the “self-cleavage kobs at 2500 uM GlcN6P” value in data set [2] is under 1e-05 s⁻¹.
Regarding G9U U45C, the “self-cleavage kobs at 160 uM GlcN6P” value in data set [1] is under 1e-05 s⁻¹. The “self-cleavage kobs at 640 uM GlcN6P” value in data set [3] is under 1e-05 s⁻¹. Besides, the “self-cleavage kobs at 2500 uM GlcN6P” value in data set [2] is under 1e-05 s⁻¹. The “self-cleavage kobs at 10000 uM GlcN6P” value in data set [4] was under 1e-05 s⁻¹.
As for G7C A48C C70A, the “self-cleavage kobs at 640 uM GlcN6P” value in data set [3] was under 1e-05 s⁻¹.
Consider U54A G66A, for which the “self-cleavage kobs at 160 uM GlcN6P” value in data set [1] was determined as 0.00093 ± 0.00023 s⁻¹. Moreover, in data set [3], the “self-cleavage kobs at 640 uM GlcN6P” value stood at 0.00513 ± 0.00085 s⁻¹. The “self-cleavage kobs at 2500 uM GlcN6P” value in data set [2] was 0.00986 ± 0.0017 s⁻¹.
Regarding G41C U45C C50U, the “self-cleavage kobs at 640 uM GlcN6P” value in data set [3] is under 1e-05 s⁻¹. In addition, the “self-cleavage kobs at 2500 uM GlcN6P” value in data set [2] was under 1e-05 s⁻¹.
Regarding G13C C34G G35C G43U A48C C67G C70U, the “self-cleavage kobs at 160 uM GlcN6P” value in data set [1] was under 1e-05 s⁻¹. The “self-cleavage kobs at 640 uM GlcN6P” value in data set [3] is under 1e-05 s⁻¹.
C16G G35C A48G U57C G62A C67A U69A: the “self-cleavage kobs at 640 uM GlcN6P” value in data set [3] is under 1e-05 s⁻¹. In addition, the “self-cleavage kobs at 2500 uM GlcN6P” value in data set [2] was under 1e-05 s⁻¹. The “self-cleavage kobs at 10000 uM GlcN6P” value in data set [4] is under 1e-05 s⁻¹.
As to C16U G37U C68G U69G, the “self-cleavage kobs at 160 uM GlcN6P” value in data set [1] is 4.65e-05 ± 2.2e-05 s⁻¹. In addition, the “self-cleavage kobs at 640 uM GlcN6P” value in data set [3] came to 0.000144 ± 7.1e-05 s⁻¹. Further, the “self-cleavage kobs at 2500 uM GlcN6P” value in data set [2] was found to be 4.23e-05 ± 1.8e-05 s⁻¹.
For the variant G29A G35U A42U, in data set [3], the “self-cleavage kobs at 640 uM GlcN6P” value is under 1e-05 s⁻¹. The “self-cleavage kobs at 2500 uM GlcN6P” value in data set [2] was under 1e-05 s⁻¹. Also, the “self-cleavage kobs at 10000 uM GlcN6P” value in data set [4] was under 1e-05 s⁻¹.
In the case of C11G A14C U69A, the “self-cleavage kobs at 160 uM GlcN6P” value in data set [1] came to 0.000527 ± 0.00014 s⁻¹. The “self-cleavage kobs at 2500 uM GlcN6P” value in data set [2] was 9.25e-05 ± 3.6e-05 s⁻¹.
As to A12G U46A, the “self-cleavage kobs at 640 uM GlcN6P” value in data set [3] is 6e-05 ± 1.9e-05 s⁻¹. Moreover, in data set [2], the “self-cleavage kobs at 2500 uM GlcN6P” value was 4.25e-05 ± 1.5e-05 s⁻¹. In addition, in data set [4], the “self-cleavage kobs at 10000 uM GlcN6P” value was 0.000187 ± 4.1e-05 s⁻¹.
As for C8G U46C, the “self-cleavage kobs at 160 uM GlcN6P” value in data set [1] was under 1e-05 s⁻¹. Besides, the “self-cleavage kobs at 640 uM GlcN6P” value in data set [3] was under 1e-05 s⁻¹. In data set [2], the “self-cleavage kobs at 2500 uM GlcN6P” value is under 1e-05 s⁻¹. The “self-cleavage kobs at 10000 uM GlcN6P” value in data set [4] is under 1e-05 s⁻¹.
Take U49C U57C G60A G63A: the “self-cleavage kobs at 160 uM GlcN6P” value in data set [1] is under 1e-05 s⁻¹. Further, the “self-cleavage kobs at 640 uM GlcN6P” value in data set [3] is under 1e-05 s⁻¹. In data set [2], the “self-cleavage kobs at 2500 uM GlcN6P” value is under 1e-05 s⁻¹.
Take G37A G62C: in data set [1], the “self-cleavage kobs at 160 uM GlcN6P” value is under 1e-05 s⁻¹. In addition, the “self-cleavage kobs at 640 uM GlcN6P” value in data set [3] was under 1e-05 s⁻¹. Further, the “self-cleavage kobs at 2500 uM GlcN6P” value in data set [2] is under 1e-05 s⁻¹. In addition, in data set [4], the “self-cleavage kobs at 10000 uM GlcN6P” value is under 1e-05 s⁻¹.
As for C8G C11A, the “self-cleavage kobs at 160 uM GlcN6P” value in data set [1] was under 1e-05 s⁻¹. In addition, the “self-cleavage kobs at 640 uM GlcN6P” value in data set [3] was under 1e-05 s⁻¹. The “self-cleavage kobs at 2500 uM GlcN6P” value in data set [2] was under 1e-05 s⁻¹. For the same variant, the “self-cleavage kobs at 10000 uM GlcN6P” value in data set [4] is under 1e-05 s⁻¹.
Turning to G29C U30G A33U C58U, the “self-cleavage kobs at 640 uM GlcN6P” value in data set [3] is under 1e-05 s⁻¹. The “self-cleavage kobs at 2500 uM GlcN6P” value in data set [2] is under 1e-05 s⁻¹.
C8U G35C C50U G51U C61G: the “self-cleavage kobs at 160 uM GlcN6P” value in data set [1] is under 1e-05 s⁻¹. In addition, the “self-cleavage kobs at 2500 uM GlcN6P” value in data set [2] is under 1e-05 s⁻¹.
For A15G C16G U46G, the “self-cleavage kobs at 640 uM GlcN6P” value in data set [3] was 9.78e-05 ± 2.8e-05 s⁻¹. In addition, in data set [2], the “self-cleavage kobs at 2500 uM GlcN6P” value amounted to 0.000248 ± 9.3e-05 s⁻¹.
As for A33C G40C A52G G63A, the “self-cleavage kobs at 160 uM GlcN6P” value in data set [1] is under 1e-05 s⁻¹. For the same variant, the “self-cleavage kobs at 640 uM GlcN6P” value in data set [3] is under 1e-05 s⁻¹. In addition, the “self-cleavage kobs at 2500 uM GlcN6P” value in data set [2] was under 1e-05 s⁻¹.
Take A6U C10G A36C: in data set [1], the “self-cleavage kobs at 160 uM GlcN6P” value was under 1e-05 s⁻¹. Further, in data set [2], the “self-cleavage kobs at 2500 uM GlcN6P” value was under 1e-05 s⁻¹.
For the variant A48C G62U, the “self-cleavage kobs at 160 uM GlcN6P” value in data set [1] is under 1e-05 s⁻¹. For the same variant, the “self-cleavage kobs at 640 uM GlcN6P” value in data set [3] was under 1e-05 s⁻¹. Also, the “self-cleavage kobs at 2500 uM GlcN6P” value in data set [2] is under 1e-05 s⁻¹.
For A39C G41U U46G, the “self-cleavage kobs at 160 uM GlcN6P” value in data set [1] was under 1e-05 s⁻¹.
For G9C U65C C68U, the “self-cleavage kobs at 640 uM GlcN6P” value in data set [3] was under 1e-05 s⁻¹.

(Values after the supplement of paper PMC7125110.)
